B1: CA154 (antibody, V domains shown)
VH: not shown
VL: AIRMTQSPSSFSASTGDRVTITCRASQGISSYLAWYQQKPGKAPKLLIYAASTLQSGVPSRFSGSGSGTDFTLTISCLQSEDFATYYCQQYYSYALTFGGGTKVEIK
B2: CA146 (antibody, V domains shown)
VH: QVQLVESGGGVVQPGRSLRLSCAASGFTFSSYGMHWVRQAPGKGLEWVAVISYDGSNKYYADSVKGRFTISRDNSKNTLYLQMNSLRAEDTAVYYCAKDRYSIVGATSNGMDVWGQGTTVTVSS
VL: not shown
B3: CA156 (antibody, V domains shown)
VH: EVQLVESGGGLVKPGGSLRLSCAASGFTFSSYSMNWVRQAPGKGLEWVSSISSSSSYIYYADSVKGRFTISRDNAKNSLYLQMNSLRAEDTAVYYCARDFSGDFWSGYDYWGQGTLVTVSS
VL: not shown
B4: CA124 (antibody, V domains shown)
VH: QVQLVESGGGLVKPGGSLRLSCAASGFTFSDYYMSWIRQAPGKGLEWVSYISSSGSTIYYADSVKGRFTISRDNAKNSLYLQMNSLRAEDTAVYYCASGFSSWGADDYWGQGTLVTVSS
VL: HPDDPVSSSLSASVGDRVTITCRASQGISNYLAWFQQKPGKAPKSLIYAASSLQSGVPSKFSGSGSGTDFTLTISSLQPEDFATYYCQQYNSYPLTFGQGTKLEIK
B5: CA150 (antibody, V domains shown)
VH: QVQLVQSGAEVKKPGSSVKVSCKASGGTFSSYAISWVRQAPGQGLEWMGGIIPIFGTANYAQKFQGRVTITADESTSTAYMELSSLRSEDTAVYYCASFPNCSSTSCYYYYYMDVWGKGTTVTVSS
VL: QSALTQPASVSGSPGQSITISCTGTSSDVGGYNYVSWYQQHPGKAPKLMIYDVSNRPSGVSNRFSGSKSGNTASLTISGLQAEDEADYYCSSYTSSSTRDVVFGGGTKLTVL
B6: CA155 (antibody, V domains shown)
VH: QVQLVESGGGLVKPGGSLRLSCAASGFTFSDYYMSWIRQAPGKGLEWVSYISSSSSYTNYADSVKGRFTISRDNAKNSLYLQMNSLRAEDTAVYYCARGGIYYYYYMDVWGKGTTVTVSS
VL: not shown
B7: CA125 (antibody, V domains shown)
VH: EVQLVESGGGLVKPGGSLRLSCAASGFTFSSYSMNWVRQAPGKGLEWVSSISSSSSYIYYADSVKGRFTISRDNAKNSLYLQMNSLRAEDTAVYYCARVVDTAMGDAFDIWGQGTMVTVSS
VL: not shown
B8: CA134 (antibody, V domains shown)
VH: EVQLVESGGGLVKPGGSLRLSCAASGFTFSSYSMNWVRQAPGKGLEWVSSISSSSSYIYYADSVKGRFTISRDNAKNSLYLQMNSLRAEDTAVYYCARVFGEQLVSFFDYWGQGTLVTVSS
VL: EIVMTQSPPGERATLSCRASQSVSSNLAWYQQKPGQAPRLLIYGASTRATGIPARFSGSGSGTEFTLTISSLQSEDFAVYYCQQYNNWPPWTFGQGTKVEIK
B9: CA149 (antibody, V domains shown)
VH: EVQLVESGGGLVKPGGSLRLSCAASGFTFSSYSMNWVRQAPGKGLEWVSSISSSSSYIYYADSVKGRFTISRDNAKNSLYLQMNSLRAEDTAVYYCARCAAGFVPDAFDIWGQGTMVTVSS
VL: not shown
B10: CA128 (antibody, V domains shown)
VH: QVQLVESGGGLVKPGGSLRLSCAASGFTFSDYYMSWIRQAPGKGLEWVSYISSSGSTIYYADSVKGRFTISRDNAKNSLYLQMNSLRAEDTAVYYCARDSGSFVGVFDYWGQGTLVTVSS
VL: not shown
B11: CA145 (antibody, V domains shown)
VH: QVQLVESGGGLVKPGGSLRLSCAASGFTFSDYYMSWIRQAPGKGLEWVSYISSSGSTIYYADSVKGRFTISRDNAKNSLYLQMNSLRAEDTAVYYCARDVLELRWWFDPWGQGTLVTVSS
VL: not shown
B12: CA157 (antibody, V domains shown)
VH: EVQLVESGGGLVQPGGSLRLSCAASGFTFSSYEMNWVRQAPGKGLEWVSYISSSGSTIYYADSVKGRFTISRDNAKNSLYLQMNSLRAEDTAVYYCARGYCSSTSCPFDYWGQGTLVTVSS
VL: not shown
B13: CA141 (antibody, V domains shown)
VH: EVQLVESGGGLVKPGGSLRLSCAASGFTFSSYSMNWVRQAPGKGLEWVSSISSSSSYIYYADSVKGRFTISRDNAKNSLYLQMNSLRAEDTAVYYCARASENGDDAFDIWGQGTMVTVSS
VL: EIVLTQSPATLSLSPGERATLSCRASQSVSSYLAWYQQKPGQAPRLLIYDASNRATGIPARFSGSGSGTDFTLTISSLEPEDFAVYYCQQRSNWPPYTFGQGTKLEIK
B14: CA144 (antibody, V domains shown)
VH: EVQLVESGGGLVKPGGSLRLSCAASGFTFSSYSMNWVRQAPGKGLEWVSSISSSSSYIYYADSVKGRFTISRDNAKNSLYLQMNSLRAEDTAVYYCARDRVEMAFHFDYWGQGTLVTVSS
VL: not shown
B15: CA143 (antibody, V domains shown)
VH: EVQLVESGGGLVKPGGSLRLSCAASGFTFSSYSMNWVRQAPGKGLEWVSSISSSSSYIYYADSVKGRFTISRDNAKNSLYLQMNSLRAEDTAVYYCARDSLPAGDYFDYWGQGTLVTVSS
VL: DIQLTQSPSFLSASVGDRVTITCRASQGISSYLAWYQQKPGKAPKLLIYAASTLQSGVPSRFSGSGSGTEFTLTISSLQPEDFATYYCQQLNSYPQTTFGGGTKVEIK
B16: CA131 (antibody, V domains shown)
VH: QLQLQESGSGLVKPSQTLSLTCAVSGGSISSGGYSWSWIRQPPGKGLEWIGYIYHSGSTYYNPSLKSRVTISVDRSKNQFSLKLSSVTAADTAVYYCATGGGHKELGGWGQGTLVTVSS
VL: not shown
B17: CA120 (antibody, V domains shown)
VH: EVQLVESGGGLVQPGGSLRLSCVASGFTFSTYSMNWVRQAPGKGLEWVSYISSSSSTIYYADSVKGRFTISRDNAKNSLYLQMNSLRAEDTAVYYCARDPGWLSWFDPWGQGTLVTVSS
VL: RSLPAPWSLSPGERATLSCRASQSVSNSYLAWYQQKPGQAPRLLIYGASSRATGIPDRFSGSGSGTDFTLTISRLEPEDFAVYYCQQYGGSPRTFGQGTKVEIK
B18: CA137 (antibody, V domains shown)
VH: EVQLVESGGGLVQPGGSLRLSCVASGFTFSTYSMNWVRQAPGKGLEWVSYISSSSSTIYYADSVKGRFTISRDNAKNSLYLQMNSLRAEDTAVYYCARDPGWLSWFDPWGQGTLVTVSS
VL: not shown
B19: CA133 (antibody, V domains shown)
VH: EVQLVESGGGLVQPGGSLRLSCVASGFTFSSYSMNWVRQAPGKGLEWVSYISSSSSTIYYADSVKGRFTISRDNAKNSLYLQMNSLRAEDTAVYYCARDPGWLSWFDPWGQGTLVTVSS
VL: not shown
B20: CA132 (antibody, V domains shown)
VH: EVQLVESGGGLVQPGGSLRLSCVASGFTFSTYSMNWVRQAPGKGLEWVSYISSSSSTIYYADSVKGRFTISRDNAKNSLYLQMNSLRAEDTAVYYCARDPGWLSWFDPWGQGTLVTVSS
VL: EIVLTQSPPGERATLSCRASQSVSNSYLAWYQQKPGQAPRLLIYGASSRATGIPDRFSGSGSGTDFTLTISRLEPEDFAVYYCQQYGGSPRTFGQGTKVEIK
B21: CA135 (antibody, V domains shown)
VH: EVQLVESGGGLVQPGGSLRLSCVASGFTFSTYSMNWVRQAPGKGLEWVSYISSSSSTIYYADSVKGRFTISRDNAKNSLYLQMNSLRAEDTAVYYCARDPGWLSWFDPWGQGTLVTVSS
VL: not shown
B22: CA162 (antibody, V domains shown)
VH: QVQLVESGGGLVKPGGSLRLSCAASGFTFSDYYMSWIRQAPGKGLEWVSYISSSSSYTNYADSVKGRFTISRDNAKNSLYLQMNSLRAEDTAVYYCARGRTMFKNYYDSSGYYGYFDYWGQGTLVTVSS
VL: DIQMTQSPSSVSASVGDRVTITCRASQGISSWLAWYQQKPGKAPKLLIYAASSLQSGVPSRFSGSGSGTDFTLTISSLQPEDFATYYCQQANSPLTFGGGTKVEIK
B23: CA159 (antibody, V domains shown)
VH: QVQLVQSGAEVKKPGSSVKVSCKASGGTFSSYAISWVRQAPGQGLEWMGGIIPIFGTANYAQKFQGRVTITADESTSTAYMELSSLRSEDTAVYYCARASYYYYYMDVWGKGTTVTVSS
VL: not shown
B24: CA151 (antibody, V domains shown)
VH: RCSCRSRAPGLVKPSETLSLTCTVSGGSVSSGSYYWSWIRQPPGKGLEWIGYIYYSGSTNYNPSLKSRVTISVDTSKNQFSLKLSSVTAADTAVYYCASFTRMSPYAFDIWGQGTMVTVSS
VL: not shown
B25: CA148 (antibody, V domains shown)
VH: QVQLVQSGAEVKKPGASVKVSCKASGYTFTSYGISWVRQAPGQGLEWMGWISAYNGNTNYAQKLQGRVTMTTDTSTSTAYMELRSLRSDDTAVYYCARTPGDEYYYYYYMDVWGKGTTVTVSS
VL: EIVLTQSPATLSLSPGERATLSCRASQSVSSYLAWYQQKPGQAPRLLIYDASNRATGIPARFSGSGSGTDFTLTISSLEPEDFAVYYCQQRSNWPRTFGQGTKLEIK
B26: CA123 (antibody, V domains shown)
VH: EVQLVESGGGLVQPGGSLRLSCAASGFTFSSYWMHWVRQAPGKGLVWVSRINSDGSSTSYADSVKGRFTISRDNAKNTLYLQMNSLRAEDTAVYYCARDQGSTSCYYCYYGMDVWGQGTTVTVSS
VL: not shown
B27: CA153 (antibody, V domains shown)
VH: EVQLVESGGGLVKPGGSLRLSCAASGFTFSSYSMNWVRQAPGKGLEWVSSISSSSSYIYYADSVKGRFTISRDNAKNSLYLQMNSLRAEDTAVYYCARLTYYYYMDVWGKGTTVTVSS
VL: not shown
B28: CA158 (antibody, V domains shown)
VH: EVQLVESGGGLVKPGGSLRLSCAASGFTFSSYSMNWVRQAPGKGLEWVSSISSSSSYIYYADSVKGRFTISRDNAKNSLYLQMNSLRAEDTAVYYCARMYQLAAIDYWGQGTLVTVSS
VL: not shown
B29: CA139 (antibody, V domains shown)
VH: not shown
VL: DIQMTQSPSSLSASVGDRVTITCRASQGISNYLAWFQQKPGKAPKSLIYAASSLQSGVPSKFSGSGSGTDFTLTISSLQPEDFATYYCQQYNSYPLTFGGGTKVEIK

molecular target: soluble HLA-E-VL9, HLA-E*01:03 heavy chain refolded with β2-microglobulin and synthetic VL9 peptide (Homo sapiens, HLA-E*01:03, strain)

Q: Does B1 bind?
A: Result: binds

Q: Does B2 bind?
A: Result: binds

Q: Does B3 bind?
A: Result: binds

Q: Does B4 bind?
A: Result: binds

Q: Does B5 bind?
A: Result: binds

Q: Does B6 bind?
A: Result: binds

Q: Does B7 bind?
A: Result: binds

Q: Does B8 bind?
A: Result: binds

Q: Does B9 bind?
A: Result: binds

Q: Does B10 bind?
A: Result: binds

Q: Does B11 bind?
A: Result: binds

Q: Does B12 bind?
A: Result: binds

Q: Does B13 bind?
A: Result: binds

Q: Does B14 bind?
A: Result: binds

Q: Does B15 bind?
A: Result: binds

Q: Does B16 bind?
A: Result: binds

Q: Does B17 bind?
A: Result: binds

Q: Does B18 bind?
A: Result: binds

Q: Does B19 bind?
A: Result: binds

Q: Does B20 bind?
A: Result: binds

Q: Does B21 bind?
A: Result: binds

Q: Does B22 bind?
A: Result: binds

Q: Does B23 bind?
A: Result: binds

Q: Does B24 bind?
A: Result: binds

Q: Does B25 bind?
A: Result: binds

Q: How did the Kd turn out when B26 was run?
A: Its Kd is 3.8 µM.

Q: Does B27 bind?
A: Result: binds

Q: Does B28 bind?
A: Result: binds

Q: Does B29 bind?
A: Result: binds
